Source: patent publication US20260184748A1 (University of Pennsylvania, published 2026)
Where no end group is shown, it is not given here.

Columns and labels:
Assay in all cases: cell-based or functional assay
CRTH2 = target: T1, CRTH2 (UniProt Q9Y5Y4 1-395)
T1 sequence (looked up): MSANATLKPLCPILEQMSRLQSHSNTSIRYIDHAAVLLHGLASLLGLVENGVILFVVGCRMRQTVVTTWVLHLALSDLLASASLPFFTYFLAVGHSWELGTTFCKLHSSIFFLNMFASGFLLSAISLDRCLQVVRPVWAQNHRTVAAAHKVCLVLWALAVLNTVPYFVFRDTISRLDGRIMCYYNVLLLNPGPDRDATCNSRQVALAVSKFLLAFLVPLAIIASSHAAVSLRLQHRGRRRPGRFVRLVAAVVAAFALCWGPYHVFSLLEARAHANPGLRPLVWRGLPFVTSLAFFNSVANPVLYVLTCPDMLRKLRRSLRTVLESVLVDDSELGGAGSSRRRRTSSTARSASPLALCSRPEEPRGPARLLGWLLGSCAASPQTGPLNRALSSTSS

PTHR1 = target: T2, PTHR1 (UniProt Q03431 27-593)
T2 sequence (looked up): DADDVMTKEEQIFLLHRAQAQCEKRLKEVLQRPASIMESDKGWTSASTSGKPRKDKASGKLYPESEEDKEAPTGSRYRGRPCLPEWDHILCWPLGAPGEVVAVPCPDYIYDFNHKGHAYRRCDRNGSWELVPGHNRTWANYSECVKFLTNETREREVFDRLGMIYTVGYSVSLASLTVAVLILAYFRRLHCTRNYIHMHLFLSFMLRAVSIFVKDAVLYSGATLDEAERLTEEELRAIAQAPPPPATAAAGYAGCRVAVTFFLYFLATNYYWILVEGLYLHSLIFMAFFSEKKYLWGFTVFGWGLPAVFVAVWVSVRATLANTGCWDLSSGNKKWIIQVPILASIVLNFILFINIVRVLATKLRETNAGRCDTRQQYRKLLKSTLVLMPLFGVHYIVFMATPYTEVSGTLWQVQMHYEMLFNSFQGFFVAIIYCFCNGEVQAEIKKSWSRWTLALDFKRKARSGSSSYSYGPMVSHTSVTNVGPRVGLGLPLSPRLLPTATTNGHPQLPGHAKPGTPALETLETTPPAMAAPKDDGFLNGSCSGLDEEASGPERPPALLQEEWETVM

GLP1R = GLP1R (UniProt P43220 24-463)
Sequence of GLP1R (P43220 24-463 limits assumed): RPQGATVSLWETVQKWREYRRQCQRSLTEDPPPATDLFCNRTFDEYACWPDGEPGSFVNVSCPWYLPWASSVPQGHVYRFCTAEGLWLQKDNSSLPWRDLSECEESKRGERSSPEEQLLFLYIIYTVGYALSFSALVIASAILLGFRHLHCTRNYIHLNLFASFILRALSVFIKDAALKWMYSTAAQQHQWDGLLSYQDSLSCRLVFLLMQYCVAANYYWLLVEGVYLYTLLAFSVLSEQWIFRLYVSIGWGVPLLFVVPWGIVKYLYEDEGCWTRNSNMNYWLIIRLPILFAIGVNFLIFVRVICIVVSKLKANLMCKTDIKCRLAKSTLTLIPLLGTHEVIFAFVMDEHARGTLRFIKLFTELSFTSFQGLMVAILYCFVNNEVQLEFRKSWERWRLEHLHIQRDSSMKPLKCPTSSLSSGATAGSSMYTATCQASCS

MC3R = MC3R (UniProt P41968 1-323)
Sequence of MC3R (P41968 whole entry): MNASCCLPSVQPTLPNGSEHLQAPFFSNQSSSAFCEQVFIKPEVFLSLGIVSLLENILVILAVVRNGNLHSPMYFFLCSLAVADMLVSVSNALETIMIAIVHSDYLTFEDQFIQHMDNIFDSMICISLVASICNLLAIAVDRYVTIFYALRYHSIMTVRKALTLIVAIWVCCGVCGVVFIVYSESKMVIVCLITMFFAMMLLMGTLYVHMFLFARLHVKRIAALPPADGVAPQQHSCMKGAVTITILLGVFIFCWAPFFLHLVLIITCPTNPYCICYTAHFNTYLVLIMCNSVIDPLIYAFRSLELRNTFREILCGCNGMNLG

PTGER3 = target: T3, PTGER3 (UniProt P43115 1-390, limits assumed)
T3 sequence (looked up): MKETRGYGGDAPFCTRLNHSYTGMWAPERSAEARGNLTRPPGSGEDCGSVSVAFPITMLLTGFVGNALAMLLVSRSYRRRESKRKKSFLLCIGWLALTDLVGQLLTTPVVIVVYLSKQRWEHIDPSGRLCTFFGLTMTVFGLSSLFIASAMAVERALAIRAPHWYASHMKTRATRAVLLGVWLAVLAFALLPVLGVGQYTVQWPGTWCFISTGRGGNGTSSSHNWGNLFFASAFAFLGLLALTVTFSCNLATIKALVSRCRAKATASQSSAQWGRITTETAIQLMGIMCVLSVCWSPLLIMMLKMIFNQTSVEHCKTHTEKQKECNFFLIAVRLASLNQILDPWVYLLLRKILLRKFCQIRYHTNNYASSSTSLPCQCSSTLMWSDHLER

CXCR3 = target: T4, CXCR3 (UniProt P49682 1-368)
T4 sequence (looked up): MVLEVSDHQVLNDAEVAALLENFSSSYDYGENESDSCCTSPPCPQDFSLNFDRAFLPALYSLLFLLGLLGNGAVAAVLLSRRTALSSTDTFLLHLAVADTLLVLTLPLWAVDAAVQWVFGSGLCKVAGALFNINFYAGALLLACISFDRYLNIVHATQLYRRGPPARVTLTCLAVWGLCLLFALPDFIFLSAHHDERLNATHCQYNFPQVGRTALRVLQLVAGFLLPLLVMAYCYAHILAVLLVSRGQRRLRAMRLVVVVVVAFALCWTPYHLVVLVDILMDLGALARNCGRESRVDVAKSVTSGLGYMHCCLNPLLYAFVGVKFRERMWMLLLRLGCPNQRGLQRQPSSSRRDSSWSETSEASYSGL

HRH3 = HRH3 (UniProt Q9Y5N1 1-445, limits assumed)
Sequence of HRH3 (Q9Y5N1 whole entry): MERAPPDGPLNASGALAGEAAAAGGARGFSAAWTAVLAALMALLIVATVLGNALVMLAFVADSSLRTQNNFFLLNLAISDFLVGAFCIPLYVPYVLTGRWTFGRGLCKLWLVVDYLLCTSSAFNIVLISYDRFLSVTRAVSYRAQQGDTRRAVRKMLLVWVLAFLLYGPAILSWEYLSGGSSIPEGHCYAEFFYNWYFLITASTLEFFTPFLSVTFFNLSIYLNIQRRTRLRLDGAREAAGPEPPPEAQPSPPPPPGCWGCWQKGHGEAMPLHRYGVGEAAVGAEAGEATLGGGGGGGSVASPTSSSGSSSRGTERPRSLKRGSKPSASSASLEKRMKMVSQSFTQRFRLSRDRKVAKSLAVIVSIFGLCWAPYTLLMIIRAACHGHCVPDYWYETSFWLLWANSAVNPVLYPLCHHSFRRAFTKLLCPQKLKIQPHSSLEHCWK

CALCR-RAMP3 = target: T5, CALCR-RAMP3 (UniProt P30988 25-474; O60896 24-148, limits assumed)
T5 sequence (looked up) 1: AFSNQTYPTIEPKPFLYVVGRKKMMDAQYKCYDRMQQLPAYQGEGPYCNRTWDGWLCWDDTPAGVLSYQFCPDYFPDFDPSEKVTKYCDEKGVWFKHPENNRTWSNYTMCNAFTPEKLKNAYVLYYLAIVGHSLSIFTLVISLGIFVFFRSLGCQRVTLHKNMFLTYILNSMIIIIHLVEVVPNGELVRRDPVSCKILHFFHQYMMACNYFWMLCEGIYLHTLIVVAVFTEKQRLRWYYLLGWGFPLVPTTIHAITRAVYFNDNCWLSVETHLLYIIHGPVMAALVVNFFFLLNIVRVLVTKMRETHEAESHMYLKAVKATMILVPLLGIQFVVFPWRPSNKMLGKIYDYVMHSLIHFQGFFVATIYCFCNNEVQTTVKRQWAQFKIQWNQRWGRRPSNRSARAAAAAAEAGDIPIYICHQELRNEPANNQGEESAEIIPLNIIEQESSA
T5 sequence (looked up) 2: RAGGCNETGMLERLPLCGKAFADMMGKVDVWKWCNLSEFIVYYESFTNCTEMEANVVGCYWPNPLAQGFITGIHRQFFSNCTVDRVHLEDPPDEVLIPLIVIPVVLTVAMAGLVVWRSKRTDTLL

CCR7 = target: T6, CCR7 (UniProt P32248 25-378)
T6 sequence (looked up): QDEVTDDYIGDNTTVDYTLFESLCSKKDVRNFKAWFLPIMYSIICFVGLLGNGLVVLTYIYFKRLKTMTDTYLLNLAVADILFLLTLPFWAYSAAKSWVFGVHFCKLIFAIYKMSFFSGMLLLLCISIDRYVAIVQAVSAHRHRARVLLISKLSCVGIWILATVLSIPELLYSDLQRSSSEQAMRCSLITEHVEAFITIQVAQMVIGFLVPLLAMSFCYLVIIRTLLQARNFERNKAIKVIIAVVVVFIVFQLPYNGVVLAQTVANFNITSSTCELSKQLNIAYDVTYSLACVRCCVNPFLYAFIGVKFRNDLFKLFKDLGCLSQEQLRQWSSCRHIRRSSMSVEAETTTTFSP

With QATVGDVNTDRPGLLDLK (also: synthesised on Rink amide resin, C-terminal amide not given here outright) [octadecaneuropeptide (ODN)] the “% Activity, arrestin, antagonist mode, 2.5 uM” value (from here on “% Activity, arrestin”) (CRTH2) was 0.6%, the “% Activity, arrestin” value (PTHR1) was -5.7% and the “% Activity, arrestin” value (GLP1R) was -11%. For the same binder, the “% Activity, arrestin” value (MC3R) was -2.1%, the “% Activity, arrestin” value (PTGER3) was -10% and the “% Activity, arrestin” value (CXCR3) was -7.5%. For the same binder, the “% Activity, arrestin” value (HRH3) was -8.6%, the “% Activity, arrestin” value (CALCR-RAMP3) was -0.1% and the “% Activity, arrestin” value (CCR7) was -19.2%.
